Assays:
[1] = molecular target: T1, His-tagged human Abl kinase domain G227-V515 coexpressed with PTP1b phosphatase domain (pET-SPEC BI-PTP Abl G227-V515-X), unphosphorylated
T1 chain: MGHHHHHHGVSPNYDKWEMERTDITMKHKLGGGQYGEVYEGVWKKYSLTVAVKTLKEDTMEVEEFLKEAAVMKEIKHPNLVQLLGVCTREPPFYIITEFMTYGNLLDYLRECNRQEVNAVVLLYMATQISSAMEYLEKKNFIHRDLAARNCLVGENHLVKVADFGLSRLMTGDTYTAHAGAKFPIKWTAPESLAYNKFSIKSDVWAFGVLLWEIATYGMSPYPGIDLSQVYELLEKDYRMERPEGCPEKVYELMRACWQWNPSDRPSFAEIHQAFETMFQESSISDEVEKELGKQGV

[2] = molecular target: His-tagged human c-MET kinase domain constructs (various lengths) coexpressed with PTP1B from pET-N6 BI-PTP, unphosphorylated

B1: human PTP1b phosphatase domain, residues Met 1 to Gly 283 (protein)
chain: MEMEKEFEQIDKSGSWAAIYQDIRHEASDFPCRVAKLPKNKNRNRYRDVSPFDHSRIKLHQEDNDYINASLIKMEEAQRSYILTQGPLPNTCGHFWEMVWEQKSRGVVMLNRVMEKGSLKCAQYWPQKEEKEMIFEDTNLKLTLISEDIKSYYTVRQLELENLTTQETREILHFHYTTWPDFGVPESPASFLNFLFKVRESGSLSPEHGPVVVHCSAGIGRSGTFCLADTCLLLMDKRKDPSSVDIKKVLLEMRKFRMGLIQTADQLRFSYLAVIEGAKFIMG
[1]
  state of phosphorylation detectable with PY20 anti-phospho-Tyr antibody (Western blot): the Abl coexpressed with PTP1B has little or no phosphorylation above background, whereas Abl coexpressed alone is highly phosphorylated
[2]
  state of phosphorylation (methods as described for the Abl kinase domain): When expressed alone the MET was phosphorylated and when coexpressed with PTP1B the MET was unphosphorylated

Source: US20050176101
